Source: the supplement of paper PMC6757056
± gives the standard deviation of the averaged measurements.

B1: library; a variant is named by its letters at N, in order (parent)
chain: GCUGUCACCGGUGUAUUACCCUAGUGGUCGACCGGUCUGAUGAGUCUNNNNNNAGACGAAACAGC

Tests used:
hypoxanthine [1] = variants of: B1; assay: normalized RNA/DNA level with ligand (relative to sTRSVctl = 100) (log10 (% of sTRSVctl)); ligand: hypoxanthine (xanthine aptamer); higher = less ribozyme self-cleavage, higher mRNA level; conditions: ligand concentration (+) RNA-Seq: 5 mM, HEK293T, reporter: mCherry (pCS4076), ligand present: yes
Method in brief: (§1)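 Library plasmids carrying ribozyme switches linked to mCherry, or to eGFP in some ligand experiments, were transfected into HEK293T at 4 µg per 6-well well, with any ligand added 1 h earlier. Seventy-two hours on, total RNA was extracted with EDTA and reverse-transcribed, amplified, barcoded and sequenced. RNA level was RNA over DNA reads normalized to a spiked-in non-cleaving sequence or to the top sequences, then scaled and log-transformed. The top set was 25 sequences, the transform was ×100 and log10, and sequences needed ≥100 DNA reads.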

hypoxanthine [2] = variants of: B1; assay: normalized RNA/DNA level without ligand (relative to sTRSVctl = 100) (log10 (% of sTRSVctl)); ligand: hypoxanthine (xanthine aptamer); higher = less ribozyme self-cleavage, higher mRNA level; conditions: HEK293T, reporter: mCherry (pCS4076), ligand present: no
Method in brief: as §1

Variant	normalized RNA/DNA level with ligand (log10) (hypoxanthine [1])	normalized RNA/DNA level without ligand (log10) (hypoxanthine [2])
GUCACA	1.917 ± 0.002	1.81 ± 0.022
GUGUCC	1.97 ± 0.036	1.776 ± 0.0043
GUAGUU	1.96 ± 0.041	1.87 ± 0.046
AUAGUU	1.9009 ± 0.0014	1.84 ± 0.055
CGGUGA	1.93 ± 0.042	1.57 ± 0.042
ACAGGC	1.89 ± 0.1	1.72 ± 0.038
UCGGCC	2.04 ± 0.081	1.951 ± 0.006
UCGGCU	1.913 ± 0.014	1.8 ± 0.063
UUAACC	1.941 ± 0.0056	1.921 ± 0.0067
GGAUCA	1.96 ± 0.04	1.84 ± 0.037
ACGCAC	1.89 ± 0.022	1.7 ± 0.041
CCCGGC	2 ± 0.041	1.859 ± 0.0099
AUCGGG	1.889 ± 0.0042	1.52 ± 0.06
UAUCUU	1.97 ± 0.044	1.9 ± 0.043
UUCCUA	1.94 ± 0.016	1.89 ± 0.0066
UCGCCC	1.981 ± 0.01	1.99 ± 0.069
AGUCCG	1.9 ± 0.09	1.528 ± 0.0051
GCUGUC	1.913 ± 0.0099	1.84 ± 0.013
UGCACA	1.934 ± 0.019	1.843 ± 0.0094
GUUUUA	1.93 ± 0.025	1.865 ± 0.0019
AGUUCC	1.922 ± 0.0092	1.886 ± 0.0063
CUACCA	1.93 ± 0.053	1.82 ± 0.02
UCCACA	1.96 ± 0.037	1.835 ± 0.0089

Variant	normalized RNA/DNA level with ligand (log10) (hypoxanthine [1])	normalized RNA/DNA level without ligand (log10) (hypoxanthine [2])
GACGGA	1.92 ± 0.047	1.683 ± 0.0063
CGCAUA	1.9 ± 0.052	1.69 ± 0.033
CGACAG	1.93 ± 0.037	1.68 ± 0.053
UUCAGA	1.96 ± 0.037	1.823 ± 0.0059
CUUAAG	1.93 ± 0.081	1.69 ± 0.018
GAAGUA	1.88 ± 0.05	1.741 ± 0.0072
GAAGUC	1.97 ± 0.022	1.87 ± 0.035
CCACUC	2.02 ± 0.059	1.98 ± 0.036
CCACUA	1.97 ± 0.042	1.86 ± 0.071
CAACGU	1.963 ± 0.0077	1.89 ± 0.025
GCCAUU	1.96 ± 0.013	1.918 ± 0.01
AGUACA	1.87 ± 0.071	1.76 ± 0.036
CGAUCU	1.95 ± 0.046	1.877 ± 0.0033
AUCGUA	1.898 ± 0.017	1.74 ± 0.024
CGUCGG	1.9 ± 0.026	1.57 ± 0.035
CCAAAA	1.92 ± 0.032	1.82 ± 0.052
GCAUUU	1.922 ± 0.019	1.88 ± 0.042
ACGAUC	1.963 ± 0.0088	1.89 ± 0.013
GUGGCC	1.98 ± 0.027	1.88 ± 0.023
GCCACU	1.99 ± 0.065	1.965 ± 0.0028
GCUCGU	1.96 ± 0.042	1.83 ± 0.048
CUCGGA	1.99 ± 0.03	1.84 ± 0.057
CGUUCG	1.9 ± 0.025	1.84 ± 0.052

Variant	normalized RNA/DNA level with ligand (log10) (hypoxanthine [1])	normalized RNA/DNA level without ligand (log10) (hypoxanthine [2])
CCCCGU	1.94 ± 0.022	1.92 ± 0.055
CCCCGC	1.986 ± 0.019	1.9 ± 0.047
CAAUCA	1.91 ± 0.069	1.77 ± 0.0087
GCGGCU	1.971 ± 0.0061	1.84 ± 0.04
GCGGCA	1.94 ± 0.055	1.7 ± 0.052
AUCCGU	1.96 ± 0.0099	1.91 ± 0.018
AUUCGA	1.91 ± 0.042	1.738 ± 0.015
UUUGGC	1.99 ± 0.059	1.92 ± 0.053
UUUGGU	1.976 ± 0.0094	1.8 ± 0.027
CAGCCA	1.9708 ± 0.0019	1.78 ± 0.051
GAGUCU	1.96 ± 0.026	1.84 ± 0.01
UGAUCA	1.98 ± 0.031	1.899 ± 0.0037
CCCCCG	1.92 ± 0.064	1.93 ± 0.044
UACGUG	1.86 ± 0.063	1.6 ± 0.009
CUCGUG	1.94 ± 0.028	1.81 ± 0.025
GAGAUU	1.92 ± 0.041	1.82 ± 0.03
GCGCGA	1.844 ± 0.0031	1.51 ± 0.025
CCAAUU	1.924 ± 0.016	1.85 ± 0.028
AUCAAA	1.921 ± 0.011	1.79 ± 0.034
AUCAAC	1.99 ± 0.031	1.84 ± 0.028
GGACCU	1.98 ± 0.056	1.9838 ± 0.0012
CCUGGA	1.996 ± 0.0047	1.88 ± 0.02
UGUUGA	1.9 ± 0.021	1.674 ± 0.0081

Variant	normalized RNA/DNA level with ligand (log10) (hypoxanthine [1])	normalized RNA/DNA level without ligand (log10) (hypoxanthine [2])
AUCAUG	1.89 ± 0.021	1.63 ± 0.062
CACCCA	1.958 ± 0.016	1.83 ± 0.019
CGGUUA	1.89 ± 0.11	1.52 ± 0.045
GAUAGC	1.87 ± 0.025	1.55 ± 0.097
UUUCUC	1.99 ± 0.064	1.963 ± 0.0086
GGGGGA	1.8897 ± 0.00058	1.77 ± 0.1
CUGAUU	1.94 ± 0.096	1.87 ± 0.031
UGCGAG	1.868 ± 0.0049	1.658 ± 0.009
ACCACA	1.94 ± 0.044	1.902 ± 0.0069
UUUCCA	1.95 ± 0.037	1.894 ± 0.0032
GAGGUU	1.97 ± 0.035	1.86 ± 0.023
UGAAUC	1.943 ± 0.013	1.96 ± 0.022
CUGCAU	1.94 ± 0.043	1.8 ± 0.074
UAAUCA	1.955 ± 0.019	1.886 ± 0.0084
GGCACG	1.92 ± 0.022	1.66 ± 0.029
UCGAUA	1.91 ± 0.026	1.57 ± 0.032
CCUCCA	1.94 ± 0.026	1.95 ± 0.067
GGGCUC	1.9567 ± 0.00028	2 ± 0.093
GAUGUC	1.95 ± 0.0048	1.92 ± 0.02
AUAGCU	1.935 ± 0.018	1.83 ± 0.005
GGAGCC	1.92 ± 0.062	1.854 ± 0.0083
GUCCUU	1.94 ± 0.11	1.95 ± 0.017
UCCAUA	1.899 ± 0.018	1.88 ± 0.024

Variant	normalized RNA/DNA level with ligand (log10) (hypoxanthine [1])	normalized RNA/DNA level without ligand (log10) (hypoxanthine [2])
CGGGAA	1.85 ± 0.029	1.53 ± 0.046
GGCUAU	1.953 ± 0.0089	1.876 ± 0.005
AAUCGA	1.92 ± 0.076	1.63 ± 0.034
GCUUCC	1.963 ± 0.0026	1.833 ± 0.012
UUCCAA	1.92 ± 0.097	1.8417 ± 0.0007
UAAGGC	1.945 ± 0.0051	1.839 ± 0.0074
CUUCUC	2.041 ± 0.013	2.03 ± 0.059
AUCUCC	1.97 ± 0.039	1.9 ± 0.058
CGCUUC	1.996 ± 0.0043	1.92 ± 0.14
AGUAUU	1.922 ± 0.015	1.86 ± 0.037
UCAGCU	1.99 ± 0.03	1.948 ± 0.014
CCUUGU	1.93 ± 0.15	1.88 ± 0.041
CUUGCG	1.937 ± 0.0067	1.853 ± 0.004
UGUAAU	1.91 ± 0.055	1.816 ± 0.012
UUCCGG	1.98 ± 0.024	1.903 ± 0.011
UGGGCG	1.96 ± 0.043	1.8 ± 0.042
GAAUCU	1.9 ± 0.069	1.9 ± 0.044
GAAUCC	1.93 ± 0.067	1.898 ± 0.008
CACCAG	1.97 ± 0.057	1.81 ± 0.061
CCUAGG	1.86 ± 0.055	1.77 ± 0.046
GUUAAA	1.933 ± 0.0032	1.798 ± 0.0025
GUGUUA	1.912 ± 0.017	1.79 ± 0.047
CCCUCG	1.93 ± 0.087	1.8103 ± 0.0013
